Laboratory results from article PMC9879285.
Values joined by “and” are separate entries in the source; they are usually repeats but may differ in a detail not shown here. Equal values may be shown once.

Molecular target: V2E FP_HM (HIV gp41 ectodomain construct FP_HM with the V2E mutation) (HIV (HXB2 laboratory strain))
Assay: SEC

For “V2E FP_HM (HIV gp41 ectodomain construct FP_HM with the V2E mutation) (domain or fragment)”, which stoichiometry N is on record?
Its stoichiometry N is 3 and 6.
